Reference: publication PMC7822592, “The half-life of the bone-derived hormone osteocalcin is regulated through O-glycosylation in mice, but not in humans” (eLife, 2020)
No end group written: not given here. O‑glycan = not defined here

Assays:
[1] = In vivo half-life assay, serum OCN after intraperitoneal injection in Bglap-/- mice; set-up: species or system mouse; details: for serum OCN / in vivo half-life / % OCN from initial (relative to maximum at 30 min) / % OCN from initial, mean used for 1/2 life: 40 ng/g i.p.; for serum OCN: ELISA; for in vivo half-life: estimated from declining phase after maximum at 30 min, serum ELISA; for % OCN from initial (relative to maximum at 30 min) / % OCN from initial, mean used for 1/2 life: serum, fasted Bglap-/- mice
Method: For in vivo half-life assay, Bglap-/- male mice were injected intraperitoneally with 40 or 80 ng/g of body weight of mouse O-glycosylated ucOCN or non-glycosylated ucOCN, serum OCN level was analyzed at indicated time points using total mouse OCN ELISA. In all ex vivo and in vivo studies, mouse or human proteins were prepared in saline solution (0.9% NaCl) containing BSA (35 mg/ml) as a carrier.

INS-1 832/3 cells = assay: OCN stability in INS-1 832/3 cell culture media; type: in vitro ADME, rat; details: 8 hours with INS-1 cells at 37°C, ELISA
Method: The INS-1 832/3 rat insulinoma cell line (Millipore-Sigma) was cultured in RPMI-1640 with 11.1 mM D-glucose, supplemented with 2 mM L-glutamine, 1 mM sodium pyruvate, 10 mM HEPES, 0.05 mM β-mercaptoethanol and 10% FBS ([Hohmeier et al., 2000]). On day 1, cells were plated at 3 × 10^5 cells per well in 12-well plates and on day 5, cells were washed with PBS and incubated with culture media containing 5 mM D-glucose. Twenty-four hours later, cells were washed with PBS and incubated for 4 hr in culture media containing 1% FBS, 5 mM D-glucose and 0.1% BSA. OCN was added for 8 hr before supernatants and cells were harvested. ucOCN and O-gly ucOCN concentration were measured in supernatants by ELISA and cells were lyzed and RNA extracted as described in the material and methods section. Gene expression was analyzed using rat specific primers for Ins1 and Gapdh.

O-gly ucOCN: O-glycosylated uncarboxylated mouse osteocalcin produced and purified from HEK293 as Fc fusion, released by thrombin (YLGASVPS(O‑glycan)PDPLEPTREQCELNPACDELSDQYGLKTAYKRIYGITI; ends and bridges not checked; also: O-glycosylated (HexNAc, Hex, NANA); UniProt P86546 50-95, looked up)
serum OCN ([1]; Bglap-/- male mice fasted 16 hr, 15 min, mouse 1): 24.4 ng/mL
serum OCN ([1]; Bglap-/- male mice fasted 16 hr, 15 min, mouse 2): 19.4 ng/mL
serum OCN ([1]; Bglap-/- male mice fasted 16 hr, 15 min, mouse 3): 16.3 ng/mL
serum OCN ([1]; Bglap-/- male mice fasted 16 hr, 15 min, mouse 4): 21.1 ng/mL
serum OCN ([1]; Bglap-/- male mice fasted 16 hr, 15 min, mouse 5): 17.9 ng/mL
serum OCN ([1]; Bglap-/- male mice fasted 16 hr, 30 min, mouse 1): 30.7 ng/mL
serum OCN ([1]; Bglap-/- male mice fasted 16 hr, 30 min, mouse 2): 26.9 ng/mL
serum OCN ([1]; Bglap-/- male mice fasted 16 hr, 30 min, mouse 3): 24.6 ng/mL
serum OCN ([1]; Bglap-/- male mice fasted 16 hr, 30 min, mouse 4): 23.6 ng/mL
serum OCN ([1]; Bglap-/- male mice fasted 16 hr, 30 min, mouse 5): 20.9 ng/mL
serum OCN ([1]; Bglap-/- male mice fasted 16 hr, 60 min, mouse 1): 27.5 ng/mL
serum OCN ([1]; Bglap-/- male mice fasted 16 hr, 60 min, mouse 2): 23.9 ng/mL
serum OCN ([1]; Bglap-/- male mice fasted 16 hr, 60 min, mouse 3): 23.9 ng/mL
serum OCN ([1]; Bglap-/- male mice fasted 16 hr, 60 min, mouse 4): 20.4 ng/mL
serum OCN ([1]; Bglap-/- male mice fasted 16 hr, 60 min, mouse 5): 19.0 ng/mL
serum OCN ([1]; Bglap-/- male mice fasted 16 hr, 90 min, mouse 1): 26.3 ng/mL
serum OCN ([1]; Bglap-/- male mice fasted 16 hr, 90 min, mouse 2): 20.0 ng/mL
serum OCN ([1]; Bglap-/- male mice fasted 16 hr, 90 min, mouse 3): 21.1 ng/mL
serum OCN ([1]; Bglap-/- male mice fasted 16 hr, 90 min, mouse 4): 17.6 ng/mL
serum OCN ([1]; Bglap-/- male mice fasted 16 hr, 90 min, mouse 5): 15.7 ng/mL
serum OCN ([1]; Bglap-/- male mice fasted 16 hr, 120 min, mouse 1): 21.6 ng/mL
serum OCN ([1]; Bglap-/- male mice fasted 16 hr, 120 min, mouse 2): 17.9 ng/mL
serum OCN ([1]; Bglap-/- male mice fasted 16 hr, 120 min, mouse 3): 18.4 ng/mL
serum OCN ([1]; Bglap-/- male mice fasted 16 hr, 120 min, mouse 4): 17.6 ng/mL
serum OCN ([1]; Bglap-/- male mice fasted 16 hr, 120 min, mouse 5): 15.6 ng/mL
in vivo half-life ([1]; Bglap-/- male mice fasted 16 hr): 182 min
in vivo half-life ([1]; Bglap-/- male mice fasted 16 hr, listed as O-glycosylated ucOCN): ~ 182 min
serum OCN ([1]; fed Bglap-/- male mice, 15 min, mouse 1): 46.2 ng/mL
serum OCN ([1]; fed Bglap-/- male mice, 15 min, mouse 2): 44.9 ng/mL
serum OCN ([1]; fed Bglap-/- male mice, 15 min, mouse 3): 53.1 ng/mL
serum OCN ([1]; fed Bglap-/- male mice, 15 min, mouse 4): 55.0 ng/mL
serum OCN ([1]; fed Bglap-/- male mice, 15 min, mouse 5): 58.1 ng/mL
serum OCN ([1]; fed Bglap-/- male mice, 15 min, mouse 6): 56.8 ng/mL
serum OCN ([1]; fed Bglap-/- male mice, 15 min, mouse 7): 44.9 ng/mL
serum OCN ([1]; fed Bglap-/- male mice, 15 min, mouse 8): 33.3 ng/mL
serum OCN ([1]; fed Bglap-/- male mice, 15 min, mouse 9): 33.3 ng/mL
serum OCN ([1]; fed Bglap-/- male mice, 15 min, mouse 10): 59.4 ng/mL
serum OCN ([1]; fed Bglap-/- male mice, 30 min, mouse 1): 51.1 ng/mL
serum OCN ([1]; fed Bglap-/- male mice, 30 min, mouse 2): 72.5 ng/mL
serum OCN ([1]; fed Bglap-/- male mice, 30 min, mouse 3): 64.1 ng/mL
serum OCN ([1]; fed Bglap-/- male mice, 30 min, mouse 4): 65.1 ng/mL
serum OCN ([1]; fed Bglap-/- male mice, 30 min, mouse 5): 69.7 ng/mL
serum OCN ([1]; fed Bglap-/- male mice, 30 min, mouse 6): 73.2 ng/mL
serum OCN ([1]; fed Bglap-/- male mice, 30 min, mouse 7): 40.4 ng/mL
serum OCN ([1]; fed Bglap-/- male mice, 30 min, mouse 8): 59.8 ng/mL
serum OCN ([1]; fed Bglap-/- male mice, 30 min, mouse 9): 47.5 ng/mL
serum OCN ([1]; fed Bglap-/- male mice, 30 min, mouse 10): 72.5 ng/mL
serum OCN ([1]; fed Bglap-/- male mice, 60 min, mouse 1): 25.1 ng/mL
serum OCN ([1]; fed Bglap-/- male mice, 60 min, mouse 2): 44.3 ng/mL
serum OCN ([1]; fed Bglap-/- male mice, 60 min, mouse 3): 31.5 ng/mL
serum OCN ([1]; fed Bglap-/- male mice, 60 min, mouse 4): 48.0 ng/mL
serum OCN ([1]; fed Bglap-/- male mice, 60 min, mouse 5): 45.3 ng/mL
serum OCN ([1]; fed Bglap-/- male mice, 60 min, mouse 6): 33.8 ng/mL
serum OCN ([1]; fed Bglap-/- male mice, 60 min, mouse 7): 15.4 ng/mL
serum OCN ([1]; fed Bglap-/- male mice, 60 min, mouse 8): 40.4 ng/mL
serum OCN ([1]; fed Bglap-/- male mice, 60 min, mouse 9): 23.7 ng/mL
serum OCN ([1]; fed Bglap-/- male mice, 60 min, mouse 10): 29.5 ng/mL
serum OCN ([1]; fed Bglap-/- male mice, 90 min, mouse 1): 11.0 ng/mL
serum OCN ([1]; fed Bglap-/- male mice, 90 min, mouse 2): 19.1 ng/mL
serum OCN ([1]; fed Bglap-/- male mice, 90 min, mouse 3): 10.0 ng/mL
serum OCN ([1]; fed Bglap-/- male mice, 90 min, mouse 4): 23.7 ng/mL
serum OCN ([1]; fed Bglap-/- male mice, 90 min, mouse 5): 20.1 ng/mL
serum OCN ([1]; fed Bglap-/- male mice, 90 min, mouse 6): 15.5 ng/mL
serum OCN ([1]; fed Bglap-/- male mice, 90 min, mouse 7): 7.2 ng/mL
serum OCN ([1]; fed Bglap-/- male mice, 90 min, mouse 8): 19.6 ng/mL
serum OCN ([1]; fed Bglap-/- male mice, 90 min, mouse 9): 11.8 ng/mL
serum OCN ([1]; fed Bglap-/- male mice, 90 min, mouse 10): 11.4 ng/mL
serum OCN ([1]; fed Bglap-/- male mice, 120 min, mouse 1): 5.5 ng/mL
serum OCN ([1]; fed Bglap-/- male mice, 120 min, mouse 2): 9.5 ng/mL
serum OCN ([1]; fed Bglap-/- male mice, 120 min, mouse 3): 4.6 ng/mL
serum OCN ([1]; fed Bglap-/- male mice, 120 min, mouse 4): 13.3 ng/mL
serum OCN ([1]; fed Bglap-/- male mice, 120 min, mouse 5): 10.2 ng/mL
serum OCN ([1]; fed Bglap-/- male mice, 120 min, mouse 6): 7.5 ng/mL
serum OCN ([1]; fed Bglap-/- male mice, 120 min, mouse 7): 4.4 ng/mL
serum OCN ([1]; fed Bglap-/- male mice, 120 min, mouse 8): 8.5 ng/mL
serum OCN ([1]; fed Bglap-/- male mice, 120 min, mouse 9): 6.4 ng/mL
serum OCN ([1]; fed Bglap-/- male mice, 120 min, mouse 10): 5.9 ng/mL
serum OCN ([1]; fed Bglap-/- male mice, 180 min, mouse 1): 1.2 ng/mL
serum OCN ([1]; fed Bglap-/- male mice, 180 min, mouse 2): 2.3 ng/mL
serum OCN ([1]; fed Bglap-/- male mice, 180 min, mouse 3): 1.0 ng/mL
serum OCN ([1]; fed Bglap-/- male mice, 180 min, mouse 4): 2.9 ng/mL
serum OCN ([1]; fed Bglap-/- male mice, 180 min, mouse 5): 2.4 ng/mL
serum OCN ([1]; fed Bglap-/- male mice, 180 min, mouse 6): 4.2 ng/mL
serum OCN ([1]; fed Bglap-/- male mice, 180 min, mouse 7): 3.5 ng/mL
serum OCN ([1]; fed Bglap-/- male mice, 180 min, mouse 8): 4.0 ng/mL
serum OCN ([1]; fed Bglap-/- male mice, 180 min, mouse 9): 3.7 ng/mL
serum OCN ([1]; fed Bglap-/- male mice, 180 min, mouse 10): 3.9 ng/mL
Serum OCN at 120 minutes ([1]; fed Bglap-/- male mice, dose 40 ng/g i.p., mouse 1): 9.5 ng/mL
Serum OCN at 120 minutes ([1]; fed Bglap-/- male mice, dose 40 ng/g i.p., mouse 2): 4.6 ng/mL
Serum OCN at 120 minutes ([1]; fed Bglap-/- male mice, dose 40 ng/g i.p., mouse 3): 13.3 ng/mL
Serum OCN at 120 minutes ([1]; fed Bglap-/- male mice, dose 40 ng/g i.p., mouse 4): 10.2 ng/mL
Serum OCN at 120 minutes ([1]; fed Bglap-/- male mice, dose 80 ng/g i.p., mouse 1): 11.6 ng/mL
Serum OCN at 120 minutes ([1]; fed Bglap-/- male mice, dose 80 ng/g i.p., mouse 2): 22.5 ng/mL
Serum OCN at 120 minutes ([1]; fed Bglap-/- male mice, dose 80 ng/g i.p., mouse 3): 25.2 ng/mL
Serum OCN at 120 minutes ([1]; fed Bglap-/- male mice, dose 80 ng/g i.p., mouse 4): 14.9 ng/mL
% OCN from initial (relative to maximum at 30 min) ([1]; 30 min, mouse 1): 100.0%
% OCN from initial (relative to maximum at 30 min) ([1]; 30 min, mouse 2): 100.0%
% OCN from initial (relative to maximum at 30 min) ([1]; 30 min, mouse 3): 100.0%
% OCN from initial (relative to maximum at 30 min) ([1]; 30 min, mouse 4): 100.0%
% OCN from initial (relative to maximum at 30 min) ([1]; 30 min, mouse 5): 100.0%
% OCN from initial (relative to maximum at 30 min) ([1]; 60 min, mouse 1): 89.4%
% OCN from initial (relative to maximum at 30 min) ([1]; 60 min, mouse 2): 88.9%
% OCN from initial (relative to maximum at 30 min) ([1]; 60 min, mouse 3): 97.3%
% OCN from initial (relative to maximum at 30 min) ([1]; 60 min, mouse 4): 86.4%
% OCN from initial (relative to maximum at 30 min) ([1]; 60 min, mouse 5): 90.9%
% OCN from initial (relative to maximum at 30 min) ([1]; 90 min, mouse 1): 85.8%
% OCN from initial (relative to maximum at 30 min) ([1]; 90 min, mouse 2): 74.3%
% OCN from initial (relative to maximum at 30 min) ([1]; 90 min, mouse 3): 85.8%
% OCN from initial (relative to maximum at 30 min) ([1]; 90 min, mouse 4): 74.6%
% OCN from initial (relative to maximum at 30 min) ([1]; 90 min, mouse 5): 75.0%
% OCN from initial (relative to maximum at 30 min) ([1]; 120 min, mouse 1): 70.4%
% OCN from initial (relative to maximum at 30 min) ([1]; 120 min, mouse 2): 66.4%
% OCN from initial (relative to maximum at 30 min) ([1]; 120 min, mouse 3): 75.1%
% OCN from initial (relative to maximum at 30 min) ([1]; 120 min, mouse 4): 74.6%
% OCN from initial (relative to maximum at 30 min) ([1]; 120 min, mouse 5): 74.7%
% OCN from initial, mean used for 1/2 life ([1]; time 0 min of declining phase): 100.0%
% OCN from initial, mean used for 1/2 life ([1]; time 30 min of declining phase): 90.6%
% OCN from initial, mean used for 1/2 life ([1]; time 60 min of declining phase): 79.1%
% OCN from initial, mean used for 1/2 life ([1]; time 90 min of declining phase): 72.2%
OCN in stimulation media (INS-1 832/3 cells; replicate 1): 0.12 ng/mL
OCN in stimulation media (INS-1 832/3 cells; replicate 2): 0.13 ng/mL
OCN in stimulation media (INS-1 832/3 cells; replicate 3): 0.13 ng/mL
